Here are results for one substance from paper PMC10715077.

In general, Kd refers to the concentration at which binding is half-saturated.

For this assay, the target named is recombinant PGI protein (pGEX-4T-PGI) (Ganoderma lucidum). Kind of assay: SPR; Biacore T200, NTA sensor chip; PGI immobilised, TLP2 as analyte at 0-400 µM (legend: 0-400 nM); 50 mM HEPES pH 7.5, 150 mM NaCl, 0.1% Tween 20. A general note: In SPR one partner is held on a chip, and binding of the other changes the refractive index at the surface.

Take “recombinant TLP2 protein (pColdI-TLP2) (natural protein)”: the Kd is 2210 nM.
